Assay in all cases: cleavage_in_vitro
Series [1] relates to T1, OMNI-35 (Bartonella apis).
T1 sequence: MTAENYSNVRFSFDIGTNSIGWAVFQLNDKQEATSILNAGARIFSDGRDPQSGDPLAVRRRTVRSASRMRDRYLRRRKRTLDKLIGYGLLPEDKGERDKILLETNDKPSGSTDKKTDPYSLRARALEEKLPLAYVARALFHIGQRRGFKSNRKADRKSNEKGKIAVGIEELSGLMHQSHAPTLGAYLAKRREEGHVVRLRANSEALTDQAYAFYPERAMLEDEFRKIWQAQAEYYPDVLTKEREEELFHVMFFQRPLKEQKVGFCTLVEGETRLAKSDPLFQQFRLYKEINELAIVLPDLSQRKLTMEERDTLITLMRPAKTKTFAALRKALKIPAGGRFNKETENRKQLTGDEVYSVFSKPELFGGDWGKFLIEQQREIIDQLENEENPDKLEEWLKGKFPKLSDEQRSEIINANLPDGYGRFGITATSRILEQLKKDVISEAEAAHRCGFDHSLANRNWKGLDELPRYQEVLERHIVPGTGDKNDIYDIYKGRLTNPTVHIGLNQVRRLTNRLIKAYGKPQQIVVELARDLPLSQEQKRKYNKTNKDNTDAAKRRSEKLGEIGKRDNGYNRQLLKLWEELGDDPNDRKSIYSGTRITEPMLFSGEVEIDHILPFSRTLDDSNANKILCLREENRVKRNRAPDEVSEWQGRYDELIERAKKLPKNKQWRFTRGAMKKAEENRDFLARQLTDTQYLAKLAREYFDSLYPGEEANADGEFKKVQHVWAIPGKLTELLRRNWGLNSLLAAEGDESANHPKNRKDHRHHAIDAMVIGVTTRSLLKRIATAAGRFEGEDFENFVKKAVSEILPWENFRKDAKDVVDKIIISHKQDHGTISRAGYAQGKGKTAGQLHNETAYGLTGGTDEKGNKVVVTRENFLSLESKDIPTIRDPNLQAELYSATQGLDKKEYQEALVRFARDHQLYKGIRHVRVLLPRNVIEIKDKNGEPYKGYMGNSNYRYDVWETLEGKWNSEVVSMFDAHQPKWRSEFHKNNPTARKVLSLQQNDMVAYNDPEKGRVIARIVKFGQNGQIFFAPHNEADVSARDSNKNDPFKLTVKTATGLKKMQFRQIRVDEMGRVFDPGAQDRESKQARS
Conditions: TXTL; PAM NRR; V1, V2 tested.

For series [2], the system named is T2, OMNI-52 (Butyrivibrio sp. NC3005).
T2 sequence: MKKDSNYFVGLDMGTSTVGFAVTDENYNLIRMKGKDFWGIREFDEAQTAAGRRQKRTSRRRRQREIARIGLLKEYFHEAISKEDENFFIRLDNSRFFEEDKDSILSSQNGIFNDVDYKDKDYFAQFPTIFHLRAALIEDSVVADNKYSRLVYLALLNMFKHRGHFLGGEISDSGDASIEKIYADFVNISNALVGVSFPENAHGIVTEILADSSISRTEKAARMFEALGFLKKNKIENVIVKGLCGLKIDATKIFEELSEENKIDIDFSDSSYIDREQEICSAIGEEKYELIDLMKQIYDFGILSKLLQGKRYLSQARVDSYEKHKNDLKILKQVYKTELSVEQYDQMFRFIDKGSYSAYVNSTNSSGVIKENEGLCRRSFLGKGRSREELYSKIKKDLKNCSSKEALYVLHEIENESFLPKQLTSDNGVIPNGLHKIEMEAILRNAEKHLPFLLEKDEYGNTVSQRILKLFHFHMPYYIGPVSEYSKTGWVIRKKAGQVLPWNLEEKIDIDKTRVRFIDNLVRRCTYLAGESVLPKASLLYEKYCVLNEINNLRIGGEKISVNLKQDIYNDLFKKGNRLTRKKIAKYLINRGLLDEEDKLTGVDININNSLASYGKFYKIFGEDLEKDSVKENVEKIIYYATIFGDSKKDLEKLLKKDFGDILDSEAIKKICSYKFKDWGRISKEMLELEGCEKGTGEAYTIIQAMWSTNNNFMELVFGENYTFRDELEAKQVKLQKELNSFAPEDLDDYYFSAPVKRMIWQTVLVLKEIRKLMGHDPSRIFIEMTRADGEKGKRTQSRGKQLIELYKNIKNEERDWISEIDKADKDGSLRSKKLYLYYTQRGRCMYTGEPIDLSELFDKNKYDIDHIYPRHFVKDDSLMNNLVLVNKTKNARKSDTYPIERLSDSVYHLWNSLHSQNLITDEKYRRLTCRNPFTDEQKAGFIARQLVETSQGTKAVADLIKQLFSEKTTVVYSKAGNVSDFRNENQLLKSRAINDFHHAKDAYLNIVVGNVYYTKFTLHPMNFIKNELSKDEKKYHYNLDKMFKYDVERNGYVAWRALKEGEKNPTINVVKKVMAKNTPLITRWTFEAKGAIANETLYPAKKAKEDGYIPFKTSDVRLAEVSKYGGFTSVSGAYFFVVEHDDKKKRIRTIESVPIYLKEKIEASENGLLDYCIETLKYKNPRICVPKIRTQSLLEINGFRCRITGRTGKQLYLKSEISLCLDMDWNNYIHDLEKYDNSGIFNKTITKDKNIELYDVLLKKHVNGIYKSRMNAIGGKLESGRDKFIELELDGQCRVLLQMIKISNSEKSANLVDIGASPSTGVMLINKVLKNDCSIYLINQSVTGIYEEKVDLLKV
The note with it: TXTL; PAM NRRADT.

The subject of series [3] is T3, OMNI-34 (Alistipes sp. An54).
T3 sequence: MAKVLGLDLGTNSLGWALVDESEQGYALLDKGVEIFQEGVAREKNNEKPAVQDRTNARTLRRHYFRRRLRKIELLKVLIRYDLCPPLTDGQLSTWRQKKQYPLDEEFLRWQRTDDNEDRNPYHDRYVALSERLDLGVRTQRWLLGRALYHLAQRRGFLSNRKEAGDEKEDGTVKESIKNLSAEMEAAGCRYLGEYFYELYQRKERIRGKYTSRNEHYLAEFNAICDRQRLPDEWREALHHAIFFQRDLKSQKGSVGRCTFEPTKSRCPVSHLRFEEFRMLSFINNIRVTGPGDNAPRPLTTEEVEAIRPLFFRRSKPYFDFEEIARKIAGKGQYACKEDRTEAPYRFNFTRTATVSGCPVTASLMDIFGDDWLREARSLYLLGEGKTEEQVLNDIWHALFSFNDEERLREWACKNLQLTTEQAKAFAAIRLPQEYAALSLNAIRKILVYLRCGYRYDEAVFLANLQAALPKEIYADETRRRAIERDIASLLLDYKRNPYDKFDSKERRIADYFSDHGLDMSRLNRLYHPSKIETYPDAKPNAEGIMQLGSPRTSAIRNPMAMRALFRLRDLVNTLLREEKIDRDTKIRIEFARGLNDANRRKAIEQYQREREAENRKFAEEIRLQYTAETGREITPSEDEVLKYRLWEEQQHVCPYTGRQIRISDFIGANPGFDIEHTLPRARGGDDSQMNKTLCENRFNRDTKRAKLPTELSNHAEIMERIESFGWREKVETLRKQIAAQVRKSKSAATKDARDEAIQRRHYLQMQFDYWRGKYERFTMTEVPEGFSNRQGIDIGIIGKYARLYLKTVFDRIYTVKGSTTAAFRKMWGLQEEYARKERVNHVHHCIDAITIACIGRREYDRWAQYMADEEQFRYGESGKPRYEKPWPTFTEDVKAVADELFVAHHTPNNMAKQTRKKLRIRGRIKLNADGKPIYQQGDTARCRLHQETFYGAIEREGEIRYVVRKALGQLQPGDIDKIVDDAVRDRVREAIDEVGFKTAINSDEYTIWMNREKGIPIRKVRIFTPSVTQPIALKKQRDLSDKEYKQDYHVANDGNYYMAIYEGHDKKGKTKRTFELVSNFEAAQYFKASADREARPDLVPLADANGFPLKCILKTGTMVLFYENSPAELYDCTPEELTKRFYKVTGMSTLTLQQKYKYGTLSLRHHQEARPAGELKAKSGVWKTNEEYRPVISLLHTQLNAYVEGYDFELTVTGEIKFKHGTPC
The note with it: TXTL; PAM NRNNNNAA; sgRNA V1-V3 tested.

Series [4] has as its system T4, OMNI-51 (Bacteroides coagulans).
T4 sequence: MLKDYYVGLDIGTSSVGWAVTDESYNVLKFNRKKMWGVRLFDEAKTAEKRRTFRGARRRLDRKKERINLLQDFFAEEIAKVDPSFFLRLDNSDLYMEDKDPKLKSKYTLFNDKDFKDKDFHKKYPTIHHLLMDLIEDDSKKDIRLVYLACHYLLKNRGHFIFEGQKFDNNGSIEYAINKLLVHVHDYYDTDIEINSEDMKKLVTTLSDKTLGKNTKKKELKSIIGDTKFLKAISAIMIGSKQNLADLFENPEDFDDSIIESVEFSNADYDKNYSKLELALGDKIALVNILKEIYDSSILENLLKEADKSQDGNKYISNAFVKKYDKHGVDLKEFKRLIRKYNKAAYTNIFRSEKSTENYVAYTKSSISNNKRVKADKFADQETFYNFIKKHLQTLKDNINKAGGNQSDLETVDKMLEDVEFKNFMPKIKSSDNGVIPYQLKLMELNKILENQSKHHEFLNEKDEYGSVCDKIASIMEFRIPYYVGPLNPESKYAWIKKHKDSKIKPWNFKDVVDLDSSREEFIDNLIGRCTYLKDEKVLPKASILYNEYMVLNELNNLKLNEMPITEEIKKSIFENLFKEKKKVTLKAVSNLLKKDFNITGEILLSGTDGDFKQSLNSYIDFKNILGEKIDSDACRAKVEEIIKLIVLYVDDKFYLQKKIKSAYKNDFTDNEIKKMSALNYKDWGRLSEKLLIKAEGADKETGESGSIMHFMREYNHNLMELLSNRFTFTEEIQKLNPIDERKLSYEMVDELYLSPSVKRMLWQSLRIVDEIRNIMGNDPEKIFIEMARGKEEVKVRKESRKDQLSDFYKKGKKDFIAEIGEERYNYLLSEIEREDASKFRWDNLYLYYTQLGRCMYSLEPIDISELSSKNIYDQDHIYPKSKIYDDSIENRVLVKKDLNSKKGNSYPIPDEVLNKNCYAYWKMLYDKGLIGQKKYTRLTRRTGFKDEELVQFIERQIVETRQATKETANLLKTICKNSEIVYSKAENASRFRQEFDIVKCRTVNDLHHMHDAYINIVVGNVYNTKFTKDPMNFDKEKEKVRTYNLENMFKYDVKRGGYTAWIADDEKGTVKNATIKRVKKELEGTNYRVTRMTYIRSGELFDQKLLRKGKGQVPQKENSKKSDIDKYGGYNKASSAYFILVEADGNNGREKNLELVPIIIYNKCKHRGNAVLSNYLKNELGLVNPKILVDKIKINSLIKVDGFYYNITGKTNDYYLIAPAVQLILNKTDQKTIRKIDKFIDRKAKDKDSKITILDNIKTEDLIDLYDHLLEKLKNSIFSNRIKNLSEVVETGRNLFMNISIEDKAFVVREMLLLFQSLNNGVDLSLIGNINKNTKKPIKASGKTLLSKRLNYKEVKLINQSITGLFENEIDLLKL
The note with it: TXTL; PAM NRRAAA.

The sequence “GGAAGAGCAGAGCCUUGGUCUCGUUGCGGCUUGACCGCGAAAGCGGUCUGGCUGUUAACAAGCUAGAUAUGCACCAAAUAAGACAGCUCCUCCGGGGGCUGUUUUUU / GGAAGAGCAGAGCCTTGGTCTCNNNNNNNN / NNNNNNNNGAGACCAAGGCTCTGCTCTTCC [OMNI-35 T2 sgRNA V1 ; pbPOS T2 protospacer 8N PAM library]” came in with an activity (1-depletion score) in series [1] of 0.97.

“GGAAGAGCAGAGCCUUGGUCUCGUUUGAGAGCUUUGGAAACAAAGCGAGUGCAAAUAAGGUUUUACCGGAAUCGUCUUUAUUAAGAACCGCAUGGUGCGGAUUAUUUAGAAGCCAUUUAGAUGGCUUCUAUUUU / GGAAGAGCAGAGCCTTGGTCTCNNNNNNNN / NNNNNNNNGAGACCAAGGCTCTGCTCTTCC [OMNI-52 T2 sgRNA V1 ; pbPOS T2 protospacer 8N PAM library]” gave an activity (1-depletion score) in series [2] of 1.

In turn, “GGAAGAGCAGAGCCUUGGUCUCGUUGUGGUUUGAUGUAGAAAUACAUCUUACCACAAUAAGGCUAUAUGCCGAAGGUUUUCAACCUACCGUCUCCGCGUAUUCCGUGGAGACUUUUUU / GGAAGAGCAGAGCCTTGGTCTCNNNNNNNN / NNNNNNNNGAGACCAAGGCTCTGCTCTTCC [OMNI-34 T2 sgRNA V1 ; pbPOS T2 protospacer 8N PAM library]” registered an activity (1-depletion score) in series [3] of 0.82.

Consider “GGAAGAGCAGAGCCUUGGUCUCGUUUGAGAGUUAUGGAAACAUGACAGAGUUCAAAUAAAAAUUUAUUCAAACCGCCUAUUUAAUUAUAGGCCGCAGAUGUUCUGCACUAUGCUUGCAAGGUUGCAAGCUUUUUU / GGAAGAGCAGAGCCTTGGTCTCNNNNNNNN / NNNNNNNNGAGACCAAGGCTCTGCTCTTCC [OMNI-51 T2 sgRNA V1 ; pbPOS T2 protospacer 8N PAM library]”, for which the activity (1-depletion score) in series [4] came to 1.

The values are drawn from patent US20220213456.
